Where “and” joins values, the source holds several entries; their conditions need not be identical. Equal entries are not always repeated.
T1: SCREAM (SCRM), recombinant full-length protein (1-494) (A. thaliana, UniProt Q9LSE2 1-494)
T1 construct: SCRM (ICE1), A. thaliana, residues 1-494; called full-length in the results; The methods describe thrombin removal of GST for all recombinant proteins; For the BLI runs of SCRM with MUTE one partner must have kept GST (anti-GST probes); also called ICE1; source: E. coli BL21, purified (glutathione resin, thrombin digestion, Superdex-200); not shown: GST, N-terminal, cleaved
T1 sequence (looked up): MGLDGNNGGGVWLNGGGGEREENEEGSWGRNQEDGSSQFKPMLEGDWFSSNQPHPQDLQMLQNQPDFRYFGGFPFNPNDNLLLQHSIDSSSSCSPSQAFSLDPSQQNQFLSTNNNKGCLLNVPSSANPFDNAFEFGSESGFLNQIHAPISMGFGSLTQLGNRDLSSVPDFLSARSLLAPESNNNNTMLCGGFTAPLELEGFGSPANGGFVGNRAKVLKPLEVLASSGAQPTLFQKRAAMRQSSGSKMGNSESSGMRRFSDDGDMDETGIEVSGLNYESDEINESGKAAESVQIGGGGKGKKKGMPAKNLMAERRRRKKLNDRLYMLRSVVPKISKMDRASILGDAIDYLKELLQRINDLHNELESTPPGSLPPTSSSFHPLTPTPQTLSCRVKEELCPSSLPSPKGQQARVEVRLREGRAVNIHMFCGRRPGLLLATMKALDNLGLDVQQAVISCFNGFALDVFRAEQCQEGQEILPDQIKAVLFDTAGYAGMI


Tests used:
[1] = test system: Commelina benghalensis stomatal opening induced by light; test: Measurement of stomatal opening; type: in vivo; conditions: leaf discs 1-6
Description: The experiments were performed as described previously[30],[68]. Briefly, Stomidazolone or ABA were added to a multi-well plate with basal buffer [5 mM MES/bistrispropane (pH 6.5), 50 mM KCl, and 0.1 mM CaCl2] to be diluted to a final concentration of 50 or 20 µM, respectively. C. benghalensis plants were incubated in the dark overnight; then, 4 mm diameter leaf discs were excised from fully expanded leaves using a hole punch (Biopsy Punch, Kai Medical). Samples were immersed in a basal buffer containing compounds for 30 min before being exposed to light (150 µmol m^−2 s^−1 red light and 50 µmol m^−2 s^−1 blue light) for 3 h. The stomatal apertures were observed using a stereoscopic microscope (BX43; Olympus). The microscopic images were acquired with a charge-coupled device (CCD) camera (DP27; Olympus), followed by autofocus image processing using cellSens standard software (Olympus). Measurement of stomatal apertures of C. benghalensis was performed by using an automation program, DeepStomata[69].

[2] = test system: Arabidopsis wild-type (WT) seedlings; test: Stomatal development bioassay, seedlings in liquid culture; type: in vivo; conditions: 50 μM
Description: Arabidopsis accession Columbia (Col-0) was used as wild-type. […] Their genotype and transcript reduction were confirmed. The presence of transgenes/mutant alleles were confirmed by genotyping. For liquid culture with Stomidazolone (AYSJ929, compound 3), the analogs (AYSJ1059 (compound 5) and AYSJ1061 (compound 6)), degraded compound lzx103 (compound 4), and SIM3* (compound 7), all compounds were dissolved in dimethyl sulfoxide (DMSO, Molecular biology grade, Fujifilm Wako, Japan 046-21981), Col-0 seeds were sown in 96-well plates (TL5003; True Line) containing 95 μL of 1/2 MS media containing 0.5% sucrose with rotary shaking at 140 rpm under continuous light at 22 °C. Five μL of compounds were dissolved in DMSO at 10 mM and diluted with liquid 1/2 MS media to 1 mM and added on 1-day-old seedlings (final concentration, 50 μM). Seedlings were incubated for 8 days, and at day 9 seedling abaxial cotyledons were observed through confocal microscopy. For liquid culture of scrm-D_S343 and scrm-D_S423, 1/2 MS liquid media without sucrose was used. For the solid culture, 0, 20, 50 or 100 μM Stomidazolone were solidified with low-melting agarose (5805S, PrimeGelTM Agarose LMT 1-20 K, TAKARA Bio). Briefly, 1/2 MS salt, 0.5% sucrose, and 0.8% low melting agarose were mixed in water and autoclaved. After cooling the medium at around 30 °C, Stomidazolone (500x, dissolved in DMSO) was added and poured into 90 mm petri dishes (Asnol Petri Dish JP φ90 x 15 mm, 3-1491-01, AS ONE). Col-0 seeds were sown on Stomidazolone-containing 1/2 MS agarose media and grown under continuous light for 9 days.
For confocal microscopy, cell peripheries of seedlings were visualized with propidium iodide (Sigma, P4170). Images were acquired using LSM800 or LSM700 (Zeiss) using a 20x lens. The GFP, YFP reporter and PI signals were detected with excitation at 488 nm and an emission filter of 410 to 546 nm, at 488 nm and an emission filter of 410 to 546 nm, and with excitation at 561 nm and 582–617 nm emission range, respectively. Raw data were collected with 1024 × 1024 pixel images. For qualitative image presentation, Adobe Photoshop CC was used to trim and uniformly adjust the contrast/brightness.
For quantitative analysis of the abaxial leaf epidermis, confocal images were taken on the days after germination as indicated in the Figure legends. Preparation of images was done as described previously[32],[70]. For counting epidermal cell types, stomatal density, stomatal precursor cells (meristemoids), total stomata-lineage cells (stomata and meristemoids) were calculated by counting cell types in an area of 0.4 mm^2 (0.63 mm × 0.63 mm) and plotted as per mm^2. A series of Z-stack confocal images was obtained to obtain images covering the epidermis and capturing GFP/YFP signal from the reporter lines. The area and the number of epidermal cells were quantified by using FIJI-ImageJ. Statistical analyses were performed using R ver. 4.0.2. Sample sizes (n) are indicated and defined in each legend. For the multiple sample comparison, 1-way ANOVA was performed followed by a post hoc Tukey HSD test. For the two-sample comparison, Student’s T-test was performed. Graphs were generated using R ggplot2 package. For all boxplots, each box represents IQR (interquartile range), in which top, middle line, and bottom indicating 75, 50, and 25 percentiles, respectively, and the bar representing maximum to minimal values. Each magenta dot represents jittered individual data point. The datapoints that go beyond the bar are outliers, which are indicated as black dots. If the data point is greater than Q3 + 1.5*IQR (above the third quartile is greater than 1.5 times of the interquartile range) or less than Q1 − 1.5*IQR, that data point is classified as outlier. The color of Boxplot graph was based on ColorBrewer.org. The value of n, the number of each experiment or samples, the means of error bars, and how statistical significance was defined are indicated in a relevant figure legend. […]

[3] = target: T1, SCREAM (SCRM), recombinant full-length …; test: BLI; SCRM with MUTE or MUTE mutants, no compound; Octet Red96, anti-GST probes loaded with 500 nM GST-tagged protein; 30 °C; 1x PBS, 2% DMSO, 0.02% Tween20; 1:1 model; KD (SS) from steady-state analysis; conditions: both partners purified
[4] = target: T1, SCREAM (SCRM), recombinant full-length …; test: BLI; SCRM with MUTE in the presence of AYSJ1059 (5); Octet Red96, anti-GST probes loaded with 500 nM GST-tagged protein; 30 °C; 1x PBS, 2% DMSO, 0.02% Tween20; 1:1 model; KD (SS) from steady-state analysis; conditions: both partners purified
[5] = target: T1, SCREAM (SCRM), recombinant full-length …; test: BLI; SCRM with MUTE in the presence of AYSJ1061 (6); Octet Red96, anti-GST probes loaded with 500 nM GST-tagged protein; 30 °C; 1x PBS, 2% DMSO, 0.02% Tween20; 1:1 model; KD (SS) from steady-state analysis; conditions: both partners purified
[6] = target: T1, SCREAM (SCRM), recombinant full-length …; test: BLI; SCRM with MUTE or MUTE mutants in the presence of Stomidazolone (3) (MUTE pre-incubated); Octet Red96, anti-GST probes loaded with 500 nM GST-tagged protein; 30 °C; 1x PBS, 2% DMSO, 0.02% Tween20; 1:1 model; KD (SS) from steady-state analysis; conditions: both partners purified

| Kd [3] [nM] | koff [3] [s⁻¹] | kon [3] [M⁻¹ s⁻¹] | Kd [6] [nM] | koff [6] [s⁻¹] | kon [6] [M⁻¹ s⁻¹] | Molecule | also measured |
| --- | --- | --- | --- | --- | --- | --- | --- |
| 6.8 ± 0.5 | 0.000147 | 24200 | 755 ± 9.5 | 0.00859 | 11400 | MUTE, recombinant full-length protein (1-202), as used in BLI with SCRM (natural protein, A. thaliana, UniProt Q9M8K6 1-202, looked up, BLI probes were anti-GST and loaded with 500 nM GST-tagged protein; source: E. coli BL21, purified (glutathione resin)) MSHIAVERNRRRQMNEHLKSLRSLTPCFYIKRGDQASIIGGVIEFIKELQQLVQVLESKKRRKTLNRPSFPYDHQTIEPSSLGAATTRVPFSRIENVMTTSTFKEVGACCNSPHANVEAKISGSNVVLRVVSRRIVGQLVKIISVLEKLSFQVLHLNISSMEETVLYFFVVKIGLECHLSLEELTLEVQKSFVSDEVIVSTN | Kd [4]: 8.8 ± 0.6 nM; koff [4]: 0.000188 s⁻¹; kon [4]: 21300 M⁻¹ s⁻¹; Kd [5]: 12.8 ± 0.8 nM; koff [5]: 0.000234 s⁻¹; kon [5]: 18200 M⁻¹ s⁻¹ |
| 22.5 ± 1.8 | 0.000256 | 11300 | 62.5 ± 8.2 | 0.000834 | 13300 | MUTE_R133A_R134A, recombinant (natural protein, A. thaliana, UniProt Q9M8K6 1-202, looked up, MUTE, A. thaliana, with R133A and R134A; source: E. coli BL21, purified (glutathione resin)) MSHIAVERNRRRQMNEHLKSLRSLTPCFYIKRGDQASIIGGVIEFIKELQQLVQVLESKKRRKTLNRPSFPYDHQTIEPSSLGAATTRVPFSRIENVMTTSTFKEVGACCNSPHANVEAKISGSNVVLRVVSAAIVGQLVKIISVLEKLSFQVLHLNISSMEETVLYFFVVKIGLECHLSLEELTLEVQKSFVSDEVIVSTN |  |
| 11.5 ± 2.6 | 0.000334 | 29000 | 30.5 ± 4.8 | 0.000634 | 20700 | MUTE_E162A_E163A, recombinant (natural protein, A. thaliana, UniProt Q9M8K6 1-202, looked up, MUTE, A. thaliana, with E162A and E163A; source: E. coli BL21, purified (glutathione resin)) MSHIAVERNRRRQMNEHLKSLRSLTPCFYIKRGDQASIIGGVIEFIKELQQLVQVLESKKRRKTLNRPSFPYDHQTIEPSSLGAATTRVPFSRIENVMTTSTFKEVGACCNSPHANVEAKISGSNVVLRVVSRRIVGQLVKIISVLEKLSFQVLHLNISSMAATVLYFFVVKIGLECHLSLEELTLEVQKSFVSDEVIVSTN |  |
| 26.5 ± 3.7 | 0.000414 | 15600 | 96.5 ± 12.8 | 0.000336 | 3480 | MUTE_R133A_R134A_E162A_E163A, recombinant (natural protein, A. thaliana, UniProt Q9M8K6 1-202, looked up, MUTE, A. thaliana, with R133A, R134A, E162A and E163A; source: E. coli BL21, purified (glutathione resin)) MSHIAVERNRRRQMNEHLKSLRSLTPCFYIKRGDQASIIGGVIEFIKELQQLVQVLESKKRRKTLNRPSFPYDHQTIEPSSLGAATTRVPFSRIENVMTTSTFKEVGACCNSPHANVEAKISGSNVVLRVVSAAIVGQLVKIISVLEKLSFQVLHLNISSMAATVLYFFVVKIGLECHLSLEELTLEVQKSFVSDEVIVSTN |  |

More lines, now with the values behind:

| Molecule | Kd [3] [nM] | koff [3] [s⁻¹] | kon [3] [M⁻¹ s⁻¹] | Kd [6] [nM] | koff [6] [s⁻¹] | kon [6] [M⁻¹ s⁻¹] | also measured |
| --- | --- | --- | --- | --- | --- | --- | --- |
| CC1=CC(=O)CC(C)(C)C1(O)/C=C/C(C)=C\C(=O)O (centres unmarked) [ABA, reference compound] |  |  |  |  |  |  | stomatal movement, value per image ([1]; ABA 20 µM, 2 images per leaf disc): 0; stomatal movement, mean from 2 images from 1 leaf disc ([1]; ABA 20 µM): 0 |
| N=C(NS(=O)(=O)c1ccccc1)c1ccccc1 [lzx103] |  |  |  |  |  |  | effect on stomatal development (in words) ([2]; WT seedlings, liquid culture): did not cause any effects; Number of stomata per 1 mm2 of cotyledon abaxial epidermis ([2]; WT, single seedlings n=8 (Fig. S3d), listed as Izx-103): 199 per 1 mm2 and 211 per 1 mm2 and 202 per 1 mm2 and 216 per 1 mm2 and 194 per 1 mm2 and 192 per 1 mm2 and 175 per 1 mm2 |
| O=C1C(c2ccccc2)=NC(NS(=O)(=O)c2ccccc2)(c2ccccc2)N1S(=O)(=O)c1ccccc1 (racemic) [AYST929] |  |  |  |  |  |  | stomatal movement, mean from 2 images from 1 leaf disc ([1]; AYST929 50 µM): 12.3654 and 10.3065 and 11.5398 and 6.9444 and 13.0998 and 7.007 |
